This is an account of results in PMC2601033.

Holding throughout (test): SPR
Conditions in all cases: biotin (Biotin DecaLabel); SPR: PBS + 0.05% Tween 20, 25 C, 10 ul/min, SA chip (BIAcore 3000); ELISA: DNA coated at 10 ug/ml in Reacti-bind DNA coating solution, anti-GST detection …
On the technique in general: Surface plasmon resonance follows binding to a sensor surface in real time, without labels.

Data set [1] concerns APL_1406, GST removed (Actinobacillus pleuropneumoniae serovar 15 HS143?).
Data set [2] has as its system Ms0826, GST removed (M. succiniproducens).
Data set [3] concerns Aa1426, GST removed (Aggregatibacter (Actinobacillus) actinomycetemcomitans HK1651 (JP2 clone)?).
Data set [4] concerns ComE1 (PM1665), GST removed (Pasteurella multocida NCTC 10322/ATCC 43137?).
Data set [5] has as its system Hi1008, GST removed (Haemophilus influenzae NCTC 8470/ATCC 9332 Pittman type D?).

Turning to pUC19 (biotinylated), the Kd in data set [1] amounted to 4 µM; in data set [2] it was 46 µM; in data set [3], 16 µM; in data set [4], 7.3 µM; in data set [5], 5 µM.

The Kd is the constant that tells how readily two partners part at equilibrium.
